Experimental findings from ChEMBL document CHEMBL1275330, “Rational design, synthesis, and evaluation of new selective inhibitors of microbial class II (zinc dependent) fructose bis-phosphate aldolases” (J Med Chem, 2010) are described below.

What is called Km is the substrate concentration at which the rate is half of its maximum.

Substrate in data set [1]: O=C(COP(=O)(O)O)N(O)CCCCOP(=O)(O)O
The conditions noted are these: Oryctolagus cuniculus.

Substrate in data set [2]: O=C(COP(=O)(O)O)N(O)CCCOP(=O)(O)O
The conditions noted are these: Oryctolagus cuniculus.

Substrate in data set [3]: CCCCCCCCCCCC(=O)OCCCCN(O)C(=O)COP(=O)(O)O
The conditions noted are these: Mycobacterium tuberculosis.

Substrate in data set [4]: CCCCCCCCCCCC(=O)OCCCCN(O)C(=O)COP(=O)(O)O
The conditions noted are these: Yersinia pestis.

Substrate in data set [5]: O=C(COP(=O)(O)O)N(O)CCCCOP(=O)(O)O
Particulars: Candida albicans.

Substrate in data set [6]: O=C(COP(=O)(O)O)N(O)CCCCOP(=O)(O)O
Particulars: Helicobacter pylori.

Substrate in data set [7]: CCCCCCCCCCCC(=O)OCCCCN(O)C(=O)COP(=O)(O)O
The conditions noted are these: Helicobacter pylori.

B1: Fructose-bisphosphate aldolase A (Oryctolagus cuniculus), P00883 (protein)
chain: MPHSHPALTPEQKKELSDIAHRIVAPGKGILAADESTGSIAKRLQSIGTENTEENRRFYRQLLLTADDRVNPCIGGVILFHETLYQKADDGRPFPQVIKSKGGVVGIKVDKGVVPLAGTNGETTTQGLDGLSERCAQYKKDGADFAKWRCVLKIGEHTPSALAIMENANVLARYASICQQNGIVPIVEPEILPDGDHDLKRCQYVTEKVLAAVYKALSDHHIYLEGTLLKPNMVTPGHACTQKYSHEEIAMATVTALRRTVPPAVTGVTFLSGGQSEEEASINLNAINKCPLLKPWALTFSYGRALQASALKAWGGKKENLKAAQEEYVKRALANSLACQGKYTPSGQAGAAASESLFISNHAY
B1: the values for the Michaelis-Menten constant (Km) in data set [1] and in data set [2] were 15 µM and 264 µM, respectively.

B2: Fructose-bisphosphate aldolase (Mycobacterium tuberculosis), P9WQA3 (protein)
chain: MPIATPEVYAEMLGQAKQNSYAFPAINCTSSETVNAAIKGFADAGSDGIIQFSTGGAEFGSGLGVKDMVTGAVALAEFTHVIAAKYPVNVALHTDHCPKDKLDSYVRPLLAISAQRVSKGGNPLFQSHMWDGSAVPIDENLAIAQELLKAAAAAKIILEIEIGVVGGEEDGVANEINEKLYTSPEDFEKTIEALGAGEHGKYLLAATFGNVHGVYKPGNVKLRPDILAQGQQVAAAKLGLPADAKPFDFVFHGGSGSLKSEIEEALRYGVVKMNVDTDTQYAFTRPIAGHMFTNYDGVLKVDGEVGVKKVYDPRSYLKKAEASMSQRVVQACNDLHCAGKSLTH
With B2, in data set [3], the Michaelis constant (Km) stood at 0.31 µM.

B3: Fructose-bisphosphate aldolase class II (Yersinia pestis), A0A380PJR2 (protein)
chain: MSKIFDFVKPGVITGDDVQKVFAVAKENNFALPAVNCVGTDSINAVLETAAKVRAPVIVQFSNGGAAFIAGKGVKTDAPQGAAILGAISGAHHVHQMAEHYGVPVILHTDHCAKKLLPWLDGLLDAGEKHFAATGKPLFSSHMIDLSEESLEENIEICSKYLTRMSKIGMTLEIELGCTGGEEDGVDNSHMDASSLYTQPQDVDYAYEKLNAISPRFTIAASFGNVHGVYKPGNVKLTPTILRDSQDYVSKKHNLPHNSLNFVFHGGSGSTAEEIKEAVSYGVVKMNIDTDTQWATWEGILNYYKKNEGYLQGQLGNPEGADKPNKKYYDPRVWLRAAQVTMITRLELAFKELNAIDVL
Take B3: in data set [4], the Km is 0.234 µM.

B4: Fructose-bisphosphate aldolase (Candida albicans (strain SC5314 / ATCC MYA-2876) (Yeast)), Q9URB4 (protein)
chain: MAPPAVLSKSGVIYGKDVKDLFDYAQEKGFAIPAINVTSSSTVVAALEAARDNKAPIILQTSQGGAAYFAGKGVDNKDQAASIAGSIAAAHYIRAIAPTYGIPVVLHTDHCAKKLLPWFDGMLKADEEFFAKTGTPLFSSHMLDLSEETDDENIATCAKYFERMAKMGQWLEMEIGITGGEEDGVNNEHVEKDALYTSPETVFAVYESLHKISPNFSIAAAFGNVHGVYKPGNVQLRPEILGDHQVYAKKQIGTDAKHPLYLVFHGGSGSTQEEFNTAIKNGVVKVNLDTDCQYAYLTGIRDYVTNKIEYLKAPVGNPEGADKPNKKYFDPRVWVREGEKTMSKRIAEALDIFHTKGQL
For B4, the Km in data set [5] turned out to be 100 µM.

B5: Fructose-bisphosphate aldolase (Helicobacter pylori (strain ATCC 700392 / 26695) (Campylobacterpylori)), P56109 (protein)
chain: MLVKGNEILLKAHKEGYGVGAFNFVNFEMLNAIFEAGNEENSPLFIQTSEGAIKYMGIDMAVGMVKTMCERYPHIPVALHLDHGTTFESCEKAVKAGFTSVMIDASHHAFEENLELTSKVVKMAHNAGVSVEAELGRLMGIEDNISVDEKDAVLVNPKEAEQFVKESQVDYLAPAIGTSHGAFKFKGEPKLDFERLQEVKRLTNIPLVLHGASAIPDNVRKSYLDAGGDLKGSKGVPFEFLQESVKGGINKVNTDTDLRIAFIAEVRKVANEDKSQFDLRKFFSPAQLALKNVVKERMKLLGSANKI
For B5, the Km in data set [6] was determined as 0.07 µM; in data set [7], 4 µM.
